Results as given in paper PMC5737849, “Structural study of the Fox-1 RRM protein hydration reveals a role for key water molecules in RRM-RNA recognition”.

Legend:
Fox-1 RRM S155A = target: T1, Fox-1 RRM S155A (UniProt Q9NWB1 109-208, S155A); assay: NMR (1H-1H TOCSY); 1:1 ratio, 20 mM NaCl, pH 6.5, 40 C; switchSENSE: 10 mM Tris-HCl pH 7.4, 140 mM NaCl, 0.05% Tween20, 25 C; NMR: 10 mM phosphate pH 6.5, 20 mM NaCl, 40 C; settings: protein: recombinant; tags: N-terminal 6xHis (pET28a); single strand
T1 sequence: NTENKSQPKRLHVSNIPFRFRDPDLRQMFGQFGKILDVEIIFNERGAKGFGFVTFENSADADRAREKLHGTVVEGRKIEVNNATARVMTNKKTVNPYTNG

Fox-1 RRM WT = target: T2, Fox-1 RRM WT (UniProt Q9NWB1 109-208); assay: as above; settings: protein: recombinant; tags: N-terminal 6xHis (pET28a); single strand
T2 sequence: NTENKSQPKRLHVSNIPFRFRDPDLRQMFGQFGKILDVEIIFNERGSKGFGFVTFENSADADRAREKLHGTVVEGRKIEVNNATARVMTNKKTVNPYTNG

UGCAUGU (ssRNA) [5'-UGCAUGU-3' RNA oligonucleotide (NMR)]
binding result (Fox-1 RRM S155A): binds
binding result (Fox-1 RRM WT): binds
